Earlier results as cited in article PMC3440555 (Bioconjugate chemistry, 2012).

Legend:
[1] = tested on: B16/F1 melanoma-bearing mouse; details: flank primary B16/F1 melanoma and B16/F10 pulmonary melanoma metastases; 2 h post-injection
[2] = tested on: B16/F1 melanoma-bearing C57 mice
[3] = biological target: melanocortin-1 (MC1) receptor (Mus musculus, UniProt Q01727); details: read-out: MC1 receptor binding affinity (IC50 value); B16/F1 melanoma cells
melanocortin-1 (MC1) receptor, sequence (Q01727 whole entry): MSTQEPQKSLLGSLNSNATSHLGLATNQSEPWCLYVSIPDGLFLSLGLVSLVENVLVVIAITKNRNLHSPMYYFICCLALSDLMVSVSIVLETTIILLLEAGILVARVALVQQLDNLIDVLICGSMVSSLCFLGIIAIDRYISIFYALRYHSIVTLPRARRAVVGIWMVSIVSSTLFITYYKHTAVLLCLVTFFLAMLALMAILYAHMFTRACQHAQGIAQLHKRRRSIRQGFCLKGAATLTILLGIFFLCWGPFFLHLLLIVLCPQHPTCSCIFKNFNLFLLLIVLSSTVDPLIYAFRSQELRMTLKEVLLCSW

IC50 [3] [nM]	Substance	Visualization of melanoma by SPECT/CT [1]	Decrease of renal uptake by L-lysine co-injection ([2]; 2 h post-injection, melanoma uptake not affected) [%]	Renal uptake ([2]; mouse, in vivo, 2 h) [%ID/g]	Tumor uptake ([2]; mouse, in vivo, 2 h) [%ID/g]
–	^67Ga-DOTA-Gly-Glu-c[Lys-Nle-Glu-His-DPhe-Arg-Trp-Gly-Arg-Pro-Val-Asp] [^67Ga-DOTA-GlyGlu-CycMSH]	clearly visualized	69.8	27.55 ± 7.87	12.93 ± 1.63
2.1	DOTA-GGNle-CycMSHhex: non-radiolabeled DOTA-conjugated lactam bridge-cyclized alpha-MSH peptide, DOTA-Gly-Gly-Nle-c[Asp-His-DPhe-Arg-Trp-Lys]-CONH2	–	–	–	–
